Biological target: human BAFF-R-GFP fusion protein expressed on the surface of mouse fibroblast (L) cells, clone D2C (human) (UniProt Q96RJ3)
Test: flow cytometry, recombinant BAFF at 0.5 ug/10^6 D2C L cells, detected with anti-BAFF-PE, no antibody; unstained cells: 0.0217

percent of cells in the BAFF-PE gate: 59.6%
Substance: recombinant BAFF ligand (from UniProt Q9Y275 134-285)

— patent US11161908
